Test: soluble on expression in E. coli; label from the status in PepcDB or PDB records

Row | Sequence | soluble on expression in E. coli
1 | EGFRIAFISDLHYKSLLKEKGLNNLVDLLIAQKPDVLLMGGDYQEGCEYVEPLFAALARVKTPMGTFGVMGNNDYERCHDEIIRTMKHYGMRPLEHEVDTLRKDGQQIILAGVRNPFDLKQNGVSPTLALSPNDFVILLVHTPDYVEDVSVANTDIALAGHTHGGQVRVFGYAPIQNSHYGTRF | not soluble
2 | EGLLNNHLDIPTATTQALTIQPSASYRINDHWSVGAALGIQYGMYEVETKGALNFNDEDQDTQLNGRVGVLYEATPGTRLGLSYSSETEFEFDNSNSIAPQQLIFSAYHEVNDDLAVMWNVNWQDWSEYTTTLKAADLVDVETQDTYQIALGTQYKLNEKMMWNAGFAFDTSMYESQSNGDITVPTGKAYRIGTGIDYKLDSENSIGFAFEAVLMESSETPRLQAGFDEPALYFMSMSYNWKN | not soluble
3 | EIINEEGKLERKADMFTRRTIQTHRAVTSVDTAVEALAVSIGEKACVDLGYMASLMGGPEKIPQIVEDLKGIIFKNPATGPFDLEDGGAHWHQGWQTADEYLSGNVRAKLAIARAAAEENPQFAINAEKLEQVQPKDLTASEISVRIGASWIDPEYYQQFMFELLHTPVYLQDRKIKLQYSPTTGEWNVQGKSTDNRDNVRVYATYGTKRINAYEIFEQTLNQRDVRIFDKTEVDGKEVRVLNEKQTAIAQQKQEAMCETFKDWIFKDPERRETLCRRYNEKFNCIRPREYDGSHIRFAGMNPEISLRTHQ | not soluble
4 | EKDSVLRHNINKLGLTSIAVEPVAAWKLNDRHSFGAGIIAQHTSAELRKYADWGIKSKAEILTAKPPKPNGVAEAAKIQADGHADVKGSDWGFGYQLAWMWDINDRARVGVNYRSKVSHTLKGDAEWAADGAAAKAMWSTMLAANGYTANEKARVKIVTPESLSVHGMYKVSDKADLFGDVTWTRHSRFDKAELVFEKEKTVVKGKSDRTTITPNWRNTYKVGFGGSYQISEPLQLRAGIAFDKSPVRNADYRMNSLPDGNRIWFSAGMKYHIGKNHVVDAAYTHIHINDTSYRTAKASGNDVDSKGASSARFKNHADIIGLQYTYKFK | not soluble
5 | EKGLEIAQERKARDEGWGDSIATMEMILKNAQGESSTRLMRLKSLEVEGDGDKGLTIFDQPRDVTGTAFLNHSHTIGADDQWLYLPALKRVKRISSRNKSGPFMGSEFAYEDLSSFEIEKYRFNHLKDEKFNGQDVFVLEQIPTDKNSGYTKQVVWLDKAHYRPLKVEFYDRKGALLKTLTFANYKQYLDKYWRAHTMAMTNHQTGKSTELNTSDLRFQTGLEENDFNKNVLKR | soluble
6 | EKTEQEQILIPVANPDTIEDLINLALVIRDTKQKKELIALNVINDNNNSENKELQGKRNLEKAAMIAASADVSVNMVSRYDLNIASGIIHTIKEYDATDVVIGLHRKANIVDSFFGNLAESLLKGTHREVIIAKFLMPVN | not soluble
7 | ELAAIQNLGGMDVLCTDKTGTITEDRVVLVQHLNPLGDLSDEVLNLAYLNSSYQTGWKNLMDIAVINFYEEHQWKTPFKNVTKIDEIPFDFSRRRLTVVVNADDHQLMITKGAVEEMEEVCTHAQINGEIVPLSTAVREELRRVNVQMNKQGMRVLAVAVKKDVHKEAVYSVEDEKEMTLIGFMGFLDP | not soluble
8 | ELALWSPEVKIVELVKDCKGLGFSILDYQDPLDPTRSVIVIRSLVADGVAERSGGLLPGDRLVSVNEYCLDNTSLAEAVEILKAVPPGLVHLGIC | soluble
9 | ELIRVGVVGTGYMGENHVRIYSEMEDVRLIGISDPNSSRVKELAARYETLPFSDHKKMFGKTNLDAISIAAPTTLHCPIVLDALEAGVDVLVEKPIADSVENATAMIESAEEMDRHLMVGHIERFNPAVLKLKEVVDSGVLGKIVSV | not soluble
10 | ELKAKILHIPGDELINHNNQILEEYDHSQNTLIVGPNHVNSNIIHALTASEDTLFYKHNGIMPKALLRAMLQDITNSNQSSGGSTITQQLVKNQVLSNKKTYSRKANEIILATRVENLLSKDEIIYTYLNIVPFGHDYNGANITGISSASYSLFGIPAKDLNIAQSAYLIGLLQSPYGY | not soluble
11 | EQTQNLYIEGDNLDAMKLLKKSYAGKVDVIYIDPPYNTGKDFIFNDTFALSQEESDEKQGRYNEEGQRLFQNTEANGKFHSDWCSMMYARLMLARTLLNDNGIIFISIDDHELANLIKIGNEVFNASNFIDVFNWAKTETPENLSKKSKQIIEYIVCYQKKKNDMKFQGLKKESVSSNGLLNQPNSVGILTFPANKVVTSIPDGVIKAGMYGTDAYDVELLEDTTVRGGLFTAPVKLKAKFKWSQANLDKEIQKGTTIKIPTLKLSPSYEKLEYDPEVPPNLINYKVGVETNEQAGNHQLQFFDKKVFNFPKPVSLIQYLCEFIDTKNKDCIVMDFFSGSGTTAEAVMRMNMKPRKNKVKYILVQLPEDVTETIKKAKTPSEKEIMQNAIDFLTENHKALNICELSKERIRRAGDTIEAECNQRKSKDLPDIGFRVFRIADSNMKDVYYSAK | not soluble
12 | ESSDHLRLVAWYIPVKNSKRTVVLAHGFAGNKGLMGAWAGMYHELGYNVLVPDSRASGASQGKAVGYGWLERRDDLQWAKTVVHKTATTQIVMSGISMGAAGMTMASGERQLPQIKAYVVDSPFTSADAIISYQAGQLYHLPAFPLVNVTSLITKLRAGYSFKEADAVAQIRKNHLPIMIISGTRDDFVPTSMGKTLYRNAHQPKSLWLVKGAGHTTAITQNYQRYKRHVTAFLEQYVQ | not soluble
13 | ESYAIFSLNAQFDALTINKARKLYRGKTRLLQGQRIELSDWPETSVERTEFYRYLLNKNLAQMNAHWASLSFSGKARPPKVIDQPSIEILLAWMREQPNRIGYAPVDSLPSDAHVLYVV | not soluble
14 | ETEPGHALVIWHDSTNEYYTMQQLTLAYEESRLLFEKAPQGIAMLDPSGEIVMANRSFGDLVGTTPVRLLGRNLEDFGVEEGTMEYVTPVLSDPEAVVHLDRSLETLRGKQKNVAMSFSSMGNVG | not soluble
15 | ETEQSVDLETVSVVGKSRPRATSGLLHTSTASDKIISGDTLRQKAVNLGDALDGVPGIHASQYGGGASAPVIRGQTGRRIKVLNHHGETGDMADFSPDHAIMVDTALSQQVEILR | not soluble
16 | ETISAFSNQVIQRGATGDDVVELQARLQYNGYYNGKIDGVYGWGTYWAVRNFQDQFGLKEVDGLVGAKTKQTLICKSKYYREYVMEQLNKGNTFTHYGKIPLKYQTKPSKAATQKARQQAEARQKQPAEKTTQKPKANANKQQNNTPAKARKQDAVAANMPGGFSNNDIRLLAQAVYGEARGEPYEGQVAIAAVILNRLNSPLFPNSVAGVIFEPLAFTAVADGQIYMQPNETAREAVLDAINGWDPSEEALYYFNPDTATSPWIWGRPQIKRIGKHIFCE | not soluble
17 | EVKGIGEYKILGESIDDAAGEAFDKTAKLMGLDYPGGPLLSKLAEKGTPGRFKFPRPMTNVPGLDMSFSGLKTFTANTIAANGDDEQTRADIAYAFEEAVCATLAIKCKRALEQTGMKRIVIAGGVSANRRLRAELEKLAKKIGGEVYYPRTEFCTDNGAMIAYAGMQRLKNGEVADMSVEARPRWPIDQLTPIA | not soluble
18 | EVKLEESGGGLVQPGGSMKLSCAASGFTFSDAWMDWVRQSPEKGLEWVAEIRSKVNNHAIHYAESVKGRFTVSRDDSKSSVYLQMNSLRAEDTGIYYCSGWSFLYWGQGTLVTVSAAKTTPPSVYPLAPGSAAQTNSMVTLGCLVKGYFPEPVTVTWNSGSLSSGVHTFPAVLQSDLYTLSSSVTVPSSTWPSETVTCNVAHPASSTKVDKKIVPRD | soluble
19 | EVQLLEESGPGLVQPSQSLSITCTVSGFSLTSYGVHWVRQSPGKGLEWLGVIWSGGSTDYNAAFISRLSISKDNSKSQVFFKMNSLQADDTAIYYCARNRGYSYAMDSWGQGTSVTVSSAKTTPPSVYPLAPGSAAQTNSMVTLGCLVKGYFPEPVTVTWNSGSLSSGVHTFPAVLQSDLYTLSSSVTVPSSTWPSETVTCNVAHPASSTKVDKKIVPRDCTS | soluble
20 | EVVPLAFTKAATQPAPGVKPYNALQVAGRDIYIREGCYNCHSQMIRPFRAETERYGHYSVAGESVYDHPFQWGSKRTGPDLARVGGRYSDEWHRIHLLNPRDVVPESNMPAFPWLARNKVDVDATVANMKALRKVGTPYSDEEIAKAPEALANKSELDAVVAYLQGLGLALKNVR | not soluble
21 | FAPLEADHPGRSGLLALLDNPDAYAARALSARMAGRSLDLMYYIWRTDLTGWLLIEELLAAADRGVRVRLLLDDVNVQGFDRAFLALNQHPNVEVRLFNPIRNRGHVLRRTLEMLLGLSRFNRRMHNKAWIADGRLAIVGGRNIGDTYYDAEESGLAMSRDADVMLAGPVVAEVEGLFDSYWNLGLALPILTLWPE | not soluble
22 | FCYSFCKNYANEIKKIITDFIEHNKINFQNEIENAFITSVIIVHTGIDAFSISLLI | not soluble
23 | FDAVPDLIAILDTEYRIVRANRAMAARLGITPEECVGLTCYRVIHGTDEPPSFCPYRQLLKDGIEHTEEVREDSLGGDFILSVLPLHDSKGKIIGCTHFARDIN | not soluble
24 | FDFKAGEEVLARWTDCRYYPAKIEAINKEGTFTVQFYDGVIRCLKRMHIKAMPEDAKGQDWIALVKA | soluble
25 | FEAQKAKANKAVDGGGGSLVPRGSGGGGSERHFVYQFMGECYFTNGTQRIRYVTRYIYNREEYVRYDSDVGEHRAVTELGRPDAEYWNSQPEILERTRAELDTVCRHNYEGPETHTSLRRLEQPNVVISLSRTEALNHHNTLVCSVTDFYPAKIKVRWFRNGQEETVGVSSTQLIRNGDWTFQVLVMLEMTPRRGEVYTCHVEHPSLKSPITVEWKA | soluble
26 | FFETIHPDDRERIRSEIETAGDSGEPNSVEFRFVEPDGTVVWVVGQAVPVTDDEGNLTERVVGIATDITDLKQR | not soluble
27 | FLEVNYYSRVLGMNRVMNVLLPEESDHNPNWTNDSLKDLPVLYLLHGMSGNHFDWQRKSDIERLLRQTKLAVIMPAADLAWYTNTDYGMNYFDAISQELPRKVASLFPQISTKRKKHFVAGMSMGGYGAFKLAFSSSYFSYAASLSGTLISSLNYPGFLDMEKQAYWKGIFGDLDKFSGSKNDIFELAKRQSNTGIELPKLYAWVGQQDFFYGANEKAIPRLRKMGYDVSYETNPGDHEWYYWSKYIENILQWLPINYQAEKRLS | not soluble
28 | FSDIASLQRFIKLNQSDWLFEMLATERFTSYFQPIVSIKDTSQIFGYESLLRGLDEEGNLMLPTPIMELATEAGLIPQLDQIARLSAITEFSRYKVSGHIFINFAPTSLYDPAFCLSSSVEAIDTAEISHDRVVFEVVESDNPQDLTHLKAVLKYYRDAGFLVALDDLGSGYSSLNLLHQLRPDFIKLDMELIRDVHQDLYKASITEKLLEITQKLNIQTVAEGIECIEELNWLRERGANLAQGYLIAKP | not soluble
29 | FSDTLEESSPIAAIFDTENLEKISITEGIERGIVDSITGQRLLEAQACTGGIIHPTTGQKLSLQDAVSQGVIDQDMATRLKPAQKAFIGFEGVKGKKKMSAAEAVKEKWLPYEAGQRFLEFQYLTGGLVDPEVHGRISTEEAIRKGFIDGRAAQRLQDTSSYAKILTCPKTKLKISYKDAINRSMVEDITGLRLLEAASVSSKGLPSPYNMSSA | soluble

— the DeepSol protein solubility set
